From paper PMC3581401 (The Journal of Biological Chemistry, 2013)
Like-named read-outs stand apart in the source and are kept apart here.

B1: IT4VAR13 DBLβ domain (domain or fragment, Plasmodium falciparum (IT4 isolate), UniProt A3R6S0 811-1201, looked up)
chain: ACTGKDGNNERFKIGTEWKIGEKVETTDTDAYIPPRRQHMCTSNLENLNVSWVTEDGKAIHSLLGDVQLAAKMDADEIIKRYKKHNTLTDPIQQKDQESICRAVRYSFADLGDIIRGRDLWEHGDQTKLQGHLQIIFGKIKEEIKKKHPGINGNDKYKGDEKNNPPYKQLREDWWEANRHQVWRAMQCELKNLKKSNGDCHYNSRGTPLDDYIPQRLRWMVEWAEWFCKMQSQEYDKLMKQCSQCMSKGGDCRKGDVNCTSCEQACEEYKKKIKKWEKQWNKIKDKYEELYLQAKIAFAGTSFGGGDRDYQQMVHFFKELQKVTGDTTLGDTTSPYSTAAGYIHQEGHVDECTEQTQFCKNRNGNTASGKEDDNYTFKDPPPKYANACKCD

What was measured:
[1] = target: ICAM-1 domains 1 to 5 fused to human IgG1 Fc (human) (UniProt P05362); assay: SPR
ICAM-1 domains 1 to 5 fused to human IgG1 Fc (human), sequence (P05362 28-485): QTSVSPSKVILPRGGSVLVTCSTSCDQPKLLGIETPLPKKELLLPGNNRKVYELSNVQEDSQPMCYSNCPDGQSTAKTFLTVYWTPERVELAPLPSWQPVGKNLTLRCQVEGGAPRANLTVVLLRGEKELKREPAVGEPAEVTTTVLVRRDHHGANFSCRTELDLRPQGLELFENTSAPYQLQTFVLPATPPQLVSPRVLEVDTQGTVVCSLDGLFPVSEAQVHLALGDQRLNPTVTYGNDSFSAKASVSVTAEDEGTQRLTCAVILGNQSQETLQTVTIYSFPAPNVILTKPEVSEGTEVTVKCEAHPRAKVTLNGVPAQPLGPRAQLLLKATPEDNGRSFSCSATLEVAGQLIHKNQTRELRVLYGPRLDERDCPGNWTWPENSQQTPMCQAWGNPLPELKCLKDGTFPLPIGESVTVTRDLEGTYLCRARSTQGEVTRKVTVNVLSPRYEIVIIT

[2] = target: ICAM-1 domains 1 to 5, Fc tag removed (human) (UniProt P05362); assay: AUC
ICAM-1 domains 1 to 5, Fc tag removed (human), sequence (P05362 28-485): as above

[3] = target: ICAM-1 domains 1 and 2 (human, UniProt P05362 28-212); assay: SAXS
ICAM-1 domains 1 and 2, sequence (P05362 28-212): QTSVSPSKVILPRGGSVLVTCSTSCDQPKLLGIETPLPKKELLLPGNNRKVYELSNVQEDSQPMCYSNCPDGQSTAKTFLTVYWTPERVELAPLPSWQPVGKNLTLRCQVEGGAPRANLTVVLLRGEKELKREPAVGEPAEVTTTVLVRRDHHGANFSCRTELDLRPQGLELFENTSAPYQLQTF

[4] = target: ICAM-1 domains 1 to 5, Fc tag removed (human, UniProt P05362 28-485); assay: AUC
ICAM-1 domains 1 to 5, Fc tag removed, sequence (P05362 28-485): as the sequence (P05362 28-485) above

[5] = target: the molecule itself; assay: AUC
[6] = target: T1, ICAM-1 domains 1 to 5 fused to human IgG1 Fc (human, UniProt P05362 28-485); assay: SPR
T1 sequence (P05362 28-485): as above

[7] = target: T1, ICAM-1 domains 1 to 5 fused to human …; assay: SPR; remark: listed apart in the source
[8] = target: T1, ICAM-1 domains 1 to 5 fused to human …; assay: SPR; remark: listed apart in the source

| Molecule | Kd [1] | koff [1] | kon [1] | stoichiometry N [1] | other results |
| --- | --- | --- | --- | --- | --- |
| IT4VAR31 DBLβ domain (domain or fragment) | 144 nM | 0.00145 s⁻¹ |  |  |  |
| IT4VAR27 DBLβ domain (domain or fragment) | 6.5 nM | 0.00842 s⁻¹ | 130000 M⁻¹ s⁻¹ |  |  |
| IT4VAR41 DBLβ domain (domain or fragment) |  | 0.00831 s⁻¹ |  | 1.09 |  |
| IT4VAR16 DBLβ domain (domain or fragment) | 51.1 nM | 0.00208 s⁻¹ | 41000 M⁻¹ s⁻¹ |  |  |
| IT4VAR13 ectodomain (PfEMP1 from the var13 gene of the P. falciparum IT4 isolate), A3R6S0 1-2691 |  |  |  | 1 | stoichiometry N [2]: 1 |
| B1 |  |  |  |  | stoichiometry N [3]: 1; stoichiometry N [4]: 1; stoichiometry N [5]: 2; Kd [6]: 2.8 nM; Kd [7]: 2.6 nM; koff [7]: 0.0009 s⁻¹; kon [7]: 350000 M⁻¹ s⁻¹; kon [8]: 35000 M⁻¹ s⁻¹; stoichiometry N [8]: 1.16 |
